Experimental data taken from paper PMC4926178 (Viruses, 2016).
Where two headings read alike, the source gives them in different places.

Tests used:
Test in all cases: ELISA
[1] = target: glycosylated soluble gp120 (rgp 120 HIV-1 MN, baculovirus) (HIV-1 MN) (UniProt P05877)
ribonuclease B = target: T1, ribonuclease B (UniProt P61823 27-150)
T1 construct: also called RNase B
T1 sequence (looked up): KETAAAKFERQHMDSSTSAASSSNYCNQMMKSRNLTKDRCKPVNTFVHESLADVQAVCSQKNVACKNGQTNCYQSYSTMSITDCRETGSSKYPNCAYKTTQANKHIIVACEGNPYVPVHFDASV

[2] = target: glycosylated soluble gp120 (rgp 120 HIV-1 MN, baculovirus) (HIV-1 MN), P05877; settings: remark: other sources report otherwise

## Nested Cyanovirin-N (Nested CV-N) (from UniProt P81180 1-50; P81180 1-101) (designed binder)
[1]
  EC50: 1.29 nM
Ribonuclease B
  EC50: 13 nM

B1: wild-type Cyanovirin-N (WT CV-N), P81180 1-101 (natural protein)
chain: LGKFSQTCYNSAIQGSVLTSTCERTNGGYNTSSIDLNSVIENVDGSLKWQPSNFIETCRNTQLAGSSELAAECKTRAQQFVSTKINLDDHIANIDGTLKYE
modifications: here or on the partner: glycosylated (oligomannose glycans; about 25 sites per monomer)
[2]
  EC50: 1.66 nM

B2: wild-type Cyanovirin-N (WT CV-N) (natural protein)
chain: B1 chain
Ribonuclease B; both partners purified
  EC50: 17 nM
